Reference: patent publication US20230357354A1, “CD38-BINDING CD31 PEPTIDES AND USES THEREOF” (ENCEFA, priority 2020, published 2023)

Columns and labels:
[1] = target: recombinant His-tagged CD38 (human) (UniProt P28907); test: Pepscan ELISA, LOOP7 array; His-tagged CD38 in solution, anti-His HRP
[2] = target: CD38 on cells of rat midbrain cultures (rat (cultures from Wistar rat embryos)) (UniProt Q64244); test: cell-based or functional assay
CD38 on cells of rat midbrain cultures (rat (cultures from Wistar rat embryos)), sequence (Q64244 whole entry): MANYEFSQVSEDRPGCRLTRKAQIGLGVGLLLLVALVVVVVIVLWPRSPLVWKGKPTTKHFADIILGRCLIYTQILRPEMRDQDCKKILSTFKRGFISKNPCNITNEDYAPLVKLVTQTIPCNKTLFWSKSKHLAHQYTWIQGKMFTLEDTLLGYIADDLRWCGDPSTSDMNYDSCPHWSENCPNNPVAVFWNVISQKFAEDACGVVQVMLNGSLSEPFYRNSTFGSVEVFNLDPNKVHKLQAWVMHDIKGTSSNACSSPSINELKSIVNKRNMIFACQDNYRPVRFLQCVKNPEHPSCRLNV

Row | Value (Pepscan ELISA signal) [1] | EC50, prevention of MPP^+-induced DA cell loss in rat midbrain cultures [2] | Substance
1 | 651 mAU | – | CD31 peptide CEYOVLVEC (LOOP7)
2 | – | 0.036 µg/mL | murine sCD31 (SEQ ID NO: 18) (from UniProt Q08481 18-585) (ligand)
